Test results reported in the supplement of paper PMC7877785.
± gives the uncertainty stated by the source.

Test: self-splicing fitness, log relative to wild type (ln ratio); higher = more splicing; Tetrahymena group I intron in knt gene, E. coli kanamycin selection, DiMSum; sequences stand for … in CUCUCU…GGAGGGAAAAGUUAUCAGGCAUGCACCUGGUAGCUAGUCUUUAAACCAAUAGAUUGCAUCGGUUUAAAAGGCAAGACCGUCAAAUUGCGGGAAAGGGGUCAACAGCCGUUCAGUACCAAGUCUCAGGGGAAACUUUGAGAUGGCCUUGCAAAGGGUAUGGUAAUAAGCUGACGGACAUGGUCCUAACCACGCAGCCAAGUCCUAAGUCAACAGAUCUUCUGUUGAUAUGGAUGCAGUUCACAGACUAAAUGUCGGUCGGGGAAGAUGUAUUCUUCUCAUAAGAUAUAGUCGGACCUCUCCUUAAUGGGAGCUAGCGGAUGAAGUGAUGCAACACUGGAGCCGCUGGGAACUAAUUUGUAUGCGAAAGUAUAUUGAUUAGUUUUGGAGUACUCGUGGUCG
Procedure, shortened: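 Six replicate transformations of E. coli BL21(DE3) with a pET-22b(+) library were grown overnight at 37°C or 30°C. The library randomised all eight P1ex-region intron nucleotides, the intron lying in the knt kanamycin-resistance gene, and plates were LB agar with or without 25 μg/mL kanamycin plus 100 μg/mL carbenicillin, 50 μM IPTG and 0.2% rhamnose. Pooled colonies were amplicon-sequenced on an Illumina HiSeq 2500, and fitness is the DiMSum error-weighted combination of wild-type-normalised replicate fold changes, kanamycin versus none.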

Row | Sequence | self-splicing fitness (ln) (30 °C) | self-splicing fitness (ln) (37 °C)
1 | ACAUAGCAAUAUUACGCCGA | -1.38 ± 0.19 | -0.864 ± 0.18
2 | UAGAAGCAAUAUUACGCGAA | -1.61 ± 0.18 | -0.748 ± 0.17
3 | AAGUAGCAAUAUUACGUUUC | -3.93 ± 0.33 | -2.03 ± 0.21
4 | CCAAAGCAAUAUUACGUUUA | -3.26 ± 0.17 | -2.63 ± 0.17
5 | UAAAAGCAAUAUUACGAUAC | -2.36 ± 0.31 | -3.93 ± 0.46
6 | GUUAAGCAAUAUUACGUCGG | -2.75 ± 0.2 | -2.55 ± 0.25
7 | GUUUAGCAAUAUUACGCAAG | -2.45 ± 0.18 | -0.942 ± 0.17
8 | AUUUAGCAAUAUUACGGCCG | -1.29 ± 0.15 | -1.6 ± 0.15
9 | GCACAGCAAUAUUACGGGGG | -1.97 ± 0.088 | -0.472 ± 0.08
10 | UUUUAGCAAUAUUACGGUCU | -2.23 ± 0.17 | -1.35 ± 0.2
11 | CUGGAGCAAUAUUACGGGCU | -3.05 ± 0.37 | -2.46 ± 0.49
12 | GCCCAGCAAUAUUACGACAU | -1.515 ± 0.012 | -0.82 ± 0.032
13 | ACGAAGCAAUAUUACGACUU | -0.832 ± 0.058 | 0.00574 ± 0.081
14 | CACAAGCAAUAUUACGGGAC | -3.48 ± 0.19 | -2.86 ± 0.2
15 | AGGUAGCAAUAUUACGGAUA | -2.53 ± 0.025 | -1.6 ± 0.036
16 | AUGGAGCAAUAUUACGGAGA | -2.93 ± 0.44 | -1.21 ± 0.32
17 | AGGCAGCAAUAUUACGCGCA | -0.635 ± 0.07 | -0.0389 ± 0.098
18 | CACCAGCAAUAUUACGGCUU | -1.91 ± 0.087 | -0.758 ± 0.093
19 | AGCCAGCAAUAUUACGGUGG | -4.22 ± 0.19 | -2.17 ± 0.17

Row | Sequence | self-splicing fitness (ln) (30 °C) | self-splicing fitness (ln) (37 °C)
20 | UCACAGCAAUAUUACGCUGU | -2.88 ± 0.16 | -2.19 ± 0.24
21 | CGCUAGCAAUAUUACGAAUU | -2.77 ± 0.16 | -2.58 ± 0.28
22 | AUAAAGCAAUAUUACGUUUU | -2.37 ± 0.097 | -1.11 ± 0.12
23 | GACAAGCAAUAUUACGCGGA | -2.24 ± 0.16 | -1.25 ± 0.13
24 | GAUGAGCAAUAUUACGAUGU | -2.63 ± 0.25 | -2.15 ± 0.35
25 | UGAAAGCAAUAUUACGGUGC | -2.02 ± 0.38 | -2.61 ± 0.36
26 | CAGAAGCAAUAUUACGCCUU | -1.78 ± 0.087 | -0.677 ± 0.11
27 | UGCCAGCAAUAUUACGGCGU | -3.04 ± 0.16 | -3.16 ± 0.27
28 | UUCAAGCAAUAUUACGCUAC | -3 ± 0.25 | -1.52 ± 0.26
29 | AAAAAGCAAUAUUACGCGCC | -0.44 ± 0.095 | -0.59 ± 0.13
30 | UUGCAGCAAUAUUACGGAGC | -2.2 ± 0.15 | –
31 | GUUUAGCAAUAUUACGUGGA | -2.48 ± 0.21 | -2.89 ± 0.29
32 | AGUAAGCAAUAUUACGAGAA | – | -1.21 ± 0.41
33 | CGGCAGCAAUAUUACGGCCC | -1.31 ± 0.27 | 0.163 ± 0.21
34 | CGUGAGCAAUAUUACGUUAU | -4.44 ± 0.36 | -2.38 ± 0.18
35 | GAUCAGCAAUAUUACGAACG | -0.118 ± 0.16 | 0.507 ± 0.17
36 | GGUCAGCAAUAUUACGCAUC | -0.704 ± 0.091 | -0.125 ± 0.1
37 | UGAAAGCAAUAUUACGAACC | -1.55 ± 0.17 | -1.16 ± 0.22
38 | ACCCAGCAAUAUUACGACAU | -0.995 ± 0.011 | -0.241 ± 0.032
